According to patent publication US20110113509, “RATIONALLY-DESIGNED MEGANUCLEASES FOR MAIZE GENOME ENGINEERING” (PRECISION BIOSCIENCES, INC., published 2011):

Assays:
LIG-34 meganuclease = biological target: T1, LIG-34 meganuclease (Artificial Sequence (derived from …)); test: cleavage_in_vitro; C50, enzyme to cut 50% of 10 nM linearized pUC19 substrate in 1 h; 37 C, SA buffer pH 8.0, 100 mM NaCl, 5 mM MgCl2, 5 mM EDTA; conditions: tags: C-terminal 6xHis; N-terminal SV40 NLS; inferred)
T1 chain: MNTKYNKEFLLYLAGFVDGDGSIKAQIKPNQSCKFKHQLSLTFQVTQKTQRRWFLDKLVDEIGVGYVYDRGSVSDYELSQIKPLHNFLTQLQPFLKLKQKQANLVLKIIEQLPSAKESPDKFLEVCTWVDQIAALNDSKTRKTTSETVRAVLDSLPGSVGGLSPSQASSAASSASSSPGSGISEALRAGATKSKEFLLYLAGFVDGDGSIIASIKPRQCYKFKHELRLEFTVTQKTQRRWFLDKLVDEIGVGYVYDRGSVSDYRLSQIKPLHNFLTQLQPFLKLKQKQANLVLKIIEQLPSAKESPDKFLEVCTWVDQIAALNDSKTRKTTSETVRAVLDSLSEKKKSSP
Procedure: (§1) The LIG-34 meganucleases were assayed for in vitro activity by incubation with linear, double-stranded DNA substrates containing the meganuclease recognition sequence. Synthetic oligonucleotides corresponding to both sense and antisense strands of the LIG-34 recognition site (SEQ ID NO: 2, SEQ ID NO: 3) were annealed and cloned into the SmaI site of the pUC19 plasmid by blunt-end ligation. The plasmid substrate was linearized with XmnI concurrently with the meganuclease digest. The enzyme digests contained 5 μl of 0.05 μM DNA substrate, 5 μl of meganuclease at varying concentrations (diluted in SA buffer, see below), 14.5 μl SA buffer, and 0.5 μl XmnI. LIG-34 enzyme concentration was varied from 5-400 nM (final concentration). Digests were incubated at 37° C. for 1 hour. Digests were stopped by adding 0.3 mg/ml Proteinase K and 0.5% SDS, and incubated for one hour at 37° C. Digests were analyzed on 1.5% agarose and visualized by ethidium bromide staining.
(§2) Digestion of the linearized plasmid with LIG34, LIG34+ or LIG34++ meganuclease produced two bands on the gel of the sizes corresponding to a simple cut at the LIG-34 site. All of the LIG-34 meganucleases efficiently cut the plasmid substrate harboring the LIG-34 recognition site. […] Thus, while all three enzymes efficiently cleave the LIG-34 site sequence, they do so with varying activity levels (LIG-34<LIG-34+<LIG-34++).

LIG-34+ meganuclease = biological target: T2, LIG-34+ meganuclease (Artificial Sequence (derived from …)); test: as above; conditions: tags: C-terminal 6xHis; N-terminal SV40 NLS; inferred)
T2 chain: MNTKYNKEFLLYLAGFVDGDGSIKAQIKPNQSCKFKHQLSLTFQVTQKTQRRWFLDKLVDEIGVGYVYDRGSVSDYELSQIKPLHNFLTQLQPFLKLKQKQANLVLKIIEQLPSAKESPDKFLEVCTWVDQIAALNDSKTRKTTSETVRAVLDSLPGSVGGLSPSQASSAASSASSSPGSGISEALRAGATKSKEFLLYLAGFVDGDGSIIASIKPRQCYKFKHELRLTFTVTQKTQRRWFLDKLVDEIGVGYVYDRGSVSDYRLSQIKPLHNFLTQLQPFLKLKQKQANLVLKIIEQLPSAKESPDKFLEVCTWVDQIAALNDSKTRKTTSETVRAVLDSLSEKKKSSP
Procedure: as §1, §2

B1: LIG-34 recognition site (dsDNA)
DNA 1: TACGCGTACGTGTGAGGTATAT
DNA 2: ATATACCTCACACGTACGCGTA
With B1 the EC50 (LIG-34 meganuclease) was about 16 nM and the EC50 (LIG-34+ meganuclease) was about 13 nM.
